How the values were obtained:
[1] = system: T1, Raytide EL (protein-tyrosine-kinase substrate, MW 2476 Dalton, Messrs. Calbiochem)
T1 sequence: KKKGPWLEEEEEAYGWLDF

[2] = system: oligopeptide Ac-Ile-Tyr-Gly-Glu-Phe-NH2 "M-2165" (Messrs. Bachem, MW 668.8)

| Substance | phosphorylation of the substrate, detected by RIfS through the fall of free anti-phosphotyrosine antibody [1] | phosphorylation of the substrate, detected by RIfS (AMD sensor) through the fall of free anti-phosphotyrosine antibody [2] | phosphorylation of the substrate, detected by RIfS (diamino-PEG 2000 sensor) through the fall of free anti-phosphotyrosine antibody [2] |
| --- | --- | --- | --- |
| Epidermal Growth Factor Receptor Kinase (EGF-RK) isolated from human A 431 carcinoma cells (Messrs. Sigma) | The phosphorylation with the alternative substrate (SEQ ID NO.:3) Raytide™ EL is clearly detectable. | – | – |
| p60c-src-kinase isolated from human cells (Messrs. Calbiochem) | – | The phosphorylation is very clearly detectable. | The phosphorylation is very clearly detectable. |

Source: patent US20050026219
